# Molecular target: anti-human β-tryptase antibody
# Test: sandwich ELISA dose response: plate coated with anti-human β-tryptase antibody, β-tryptase calibrator titrated, detected with AP-conjugated anti-human β-tryptase, luminescence
substance,measurement,value
human β-tryptase (from UniProt Q15661 31-275) (enzyme),EC50,0.065 µg/mL
